To fix the notation:
B1: Serine/threonine-protein kinase PAK 1 (Homo sapiens), Q13153 (parent)
chain: MSNNGLDIQDKPPAPPMRNTSTMIGAGSKDAGTLNHGSKPLPPNPEEKKKKDRFYRSILPGDKTNKKKEKERPEISLPSDFEHTIHVGFDAVTGEFTGMPEQWARLLQTSNITKSEQKKNPQAVLDVLEFYNSKKTSNSQKYMSFTDKSAEDYNSSNALNVKAVSETPAVPPVSEDEDDDDDDATPPPVIAPRPEHTKSVYTRSVIEPLPVTPTRDVATSPISPTENNTTPPDALTRNTEKQKKKPKMSDEEILEKLRSIVSVGDPKKKYTRFEKIGQGASGTVYTAMDVATGQEVAIKQMNLQQQPKKELIINEILVMRENKNPNIVNYLDSYLVGDELWVVMEYLAGGSLTDVVTETCMDEGQIAAVCRECLQALEFLHSNQVIHRDIKSDNILLGMDGSVKLTDFGFCAQITPEQSKRSTMVGTPYWMAPEVVTRKAYGPKVDIWSLGIMAIEMIEGEPPYLNENPLRALYLIATNGTPELQNPEKLSAIFRDFLNRCLEMDVEKRGSAKELLQHQFLKIAKPLSSLTPLIAAAKEATKNNH

The variants in this test derive from B1. Particulars: with paxi_chick PXN.
With K299A, the “effect of a mutation on the interaction” value was “decreasing interaction”. Take L107F: the “effect of a mutation on the interaction” value is “increasing interaction”.

(Values after IntAct's records for PubMed 16717130.)
